Literature values in patent publication US20060198900A1, “Bioactive Agent Compositions for Repair of Cell Injuries” (Nutritional Bioscience Limited, priority 2004, published 2006).

System: gastric damage
Conditions: Playford et al. 1995

B1: hSP: recombinant human spasmolytic polyptide (hSP) (protein, UniProt Q03403 24-129, looked up)
Trefoil factor 2: EKPSPCQCSRLSPHNRTNCGFPGITSDQCFDNGCCFDSSVTGVPWCFHPLPKQESDQCVMEVSDRRNCGYPGISPEECASRKCCFSNFIFEVPWCFFPKSVEDCHY
**Q.** For B1, which “reduction of gastric damage” value is on record?
**A.** 50%
